# From patent US20190233495A1 (Sanofi, published 2019)
# Non-standard residues stand in square brackets, D forms with d. Nle = CCCC[C@H](N)C(=O)O; Aib = CC(C)(N)C(=O)O
# B1: SEQ ID NO: 1 (peptide)
# peptide: Ac-LEGREKVRAQI[Aib]IEGMSKWSKRKK-NH2
# SMILES: CC[C@H](C)[C@H](NC(=O)[C@H](CCC(N)=O)NC(=O)[C@H](C)NC(=O)[C@H](CCCNC(=N)N)NC(=O)[C@@H](NC(=O)[C@H](CCCCN)NC(=O)[C@H](CCC(=O)O)NC(=O)[C@H](CCCNC(=N)N)NC(=O)CNC(=O)[C@H](CCC(=O)O)NC(=O)[C@H](CC(C)C)NC(C)=O)C(C)C)C(=O)NC(C)(C)C(=O)N[C@H](C(=O)N[C@@H](CCC(=O)O)C(=O)NCC(=O)N[C@@H](CCSC)C(=O)N[C@@H](CO)C(=O)N[C@@H](CCCCN)C(=O)N[C@@H](Cc1c[nH]c2ccccc12)C(=O)N[C@@H](CO)C(=O)N[C@@H](CCCCN)C(=O)N[C@@H](CCCNC(=N)N)C(=O)N[C@@H](CCCCN)C(=O)N[C@@H](CCCCN)C(N)=O)[C@@H](C)CC
# B2: SEQ ID NO: 5 (peptide)
# peptide: Ac-LEGREKVRAK(Ac)I[Aib][Aib]EG[Nle]STWS[Aib]RKK(Ac)-NH2
# SMILES: CCCC[C@H](NC(=O)CNC(=O)[C@H](CCC(=O)O)NC(=O)C(C)(C)NC(=O)C(C)(C)NC(=O)[C@@H](NC(=O)[C@H](CCCCNC(C)=O)NC(=O)[C@H](C)NC(=O)[C@H](CCCNC(=N)N)NC(=O)[C@@H](NC(=O)[C@H](CCCCN)NC(=O)[C@H](CCC(=O)O)NC(=O)[C@H](CCCNC(=N)N)NC(=O)CNC(=O)[C@H](CCC(=O)O)NC(=O)[C@H](CC(C)C)NC(C)=O)C(C)C)[C@@H](C)CC)C(=O)N[C@@H](CO)C(=O)N[C@H](C(=O)N[C@@H](Cc1c[nH]c2ccccc12)C(=O)N[C@@H](CO)C(=O)NC(C)(C)C(=O)N[C@@H](CCCNC(=N)N)C(=O)N[C@@H](CCCCN)C(=O)N[C@@H](CCCCNC(C)=O)C(N)=O)[C@@H](C)O
# B3: SEQ ID NO: 50 (peptide)
# peptide: Ac-LEGREKVRAQI[Aib][Aib]EG[Nle]STWS[Aib]RRR-NH2
# SMILES: CCCC[C@H](NC(=O)CNC(=O)[C@H](CCC(=O)O)NC(=O)C(C)(C)NC(=O)C(C)(C)NC(=O)[C@@H](NC(=O)[C@H](CCC(N)=O)NC(=O)[C@H](C)NC(=O)[C@H](CCCNC(=N)N)NC(=O)[C@@H](NC(=O)[C@H](CCCCN)NC(=O)[C@H](CCC(=O)O)NC(=O)[C@H](CCCNC(=N)N)NC(=O)CNC(=O)[C@H](CCC(=O)O)NC(=O)[C@H](CC(C)C)NC(C)=O)C(C)C)[C@@H](C)CC)C(=O)N[C@@H](CO)C(=O)N[C@H](C(=O)N[C@@H](Cc1c[nH]c2ccccc12)C(=O)N[C@@H](CO)C(=O)NC(C)(C)C(=O)N[C@@H](CCCNC(=N)N)C(=O)N[C@@H](CCCNC(=N)N)C(=O)N[C@@H](CCCNC(=N)N)C(N)=O)[C@@H](C)O
# B4: SEQ ID NO: 51 (peptide)
# peptide: Ac-LEGREKVRAQI[Aib][Aib]EG[Nle]STFS[Aib]RKK-NH2
# SMILES: CCCC[C@H](NC(=O)CNC(=O)[C@H](CCC(=O)O)NC(=O)C(C)(C)NC(=O)C(C)(C)NC(=O)[C@@H](NC(=O)[C@H](CCC(N)=O)NC(=O)[C@H](C)NC(=O)[C@H](CCCNC(=N)N)NC(=O)[C@@H](NC(=O)[C@H](CCCCN)NC(=O)[C@H](CCC(=O)O)NC(=O)[C@H](CCCNC(=N)N)NC(=O)CNC(=O)[C@H](CCC(=O)O)NC(=O)[C@H](CC(C)C)NC(C)=O)C(C)C)[C@@H](C)CC)C(=O)N[C@@H](CO)C(=O)N[C@H](C(=O)N[C@@H](Cc1ccccc1)C(=O)N[C@@H](CO)C(=O)NC(C)(C)C(=O)N[C@@H](CCCNC(=N)N)C(=O)N[C@@H](CCCCN)C(=O)N[C@@H](CCCCN)C(N)=O)[C@@H](C)O
# B5: SEQ ID NO: 52 (peptide)
# peptide: Ac-LEGREKVRAQI[Aib][Aib]EG[Nle]SQWS[Aib]RRR-NH2
# SMILES: CCCC[C@H](NC(=O)CNC(=O)[C@H](CCC(=O)O)NC(=O)C(C)(C)NC(=O)C(C)(C)NC(=O)[C@@H](NC(=O)[C@H](CCC(N)=O)NC(=O)[C@H](C)NC(=O)[C@H](CCCNC(=N)N)NC(=O)[C@@H](NC(=O)[C@H](CCCCN)NC(=O)[C@H](CCC(=O)O)NC(=O)[C@H](CCCNC(=N)N)NC(=O)CNC(=O)[C@H](CCC(=O)O)NC(=O)[C@H](CC(C)C)NC(C)=O)C(C)C)[C@@H](C)CC)C(=O)N[C@@H](CO)C(=O)N[C@@H](CCC(N)=O)C(=O)N[C@@H](Cc1c[nH]c2ccccc12)C(=O)N[C@@H](CO)C(=O)NC(C)(C)C(=O)N[C@@H](CCCNC(=N)N)C(=O)N[C@@H](CCCNC(=N)N)C(=O)N[C@@H](CCCNC(=N)N)C(N)=O
# B6: SEQ ID NO: 53 (peptide)
# peptide: Ac-LEGREKVRAQI[Aib][Aib]EG[Nle]STYS[Aib]RKK-NH2
# SMILES: CCCC[C@H](NC(=O)CNC(=O)[C@H](CCC(=O)O)NC(=O)C(C)(C)NC(=O)C(C)(C)NC(=O)[C@@H](NC(=O)[C@H](CCC(N)=O)NC(=O)[C@H](C)NC(=O)[C@H](CCCNC(=N)N)NC(=O)[C@@H](NC(=O)[C@H](CCCCN)NC(=O)[C@H](CCC(=O)O)NC(=O)[C@H](CCCNC(=N)N)NC(=O)CNC(=O)[C@H](CCC(=O)O)NC(=O)[C@H](CC(C)C)NC(C)=O)C(C)C)[C@@H](C)CC)C(=O)N[C@@H](CO)C(=O)N[C@H](C(=O)N[C@@H](Cc1ccc(O)cc1)C(=O)N[C@@H](CO)C(=O)NC(C)(C)C(=O)N[C@@H](CCCNC(=N)N)C(=O)N[C@@H](CCCCN)C(=O)N[C@@H](CCCCN)C(N)=O)[C@@H](C)O
# B7: SEQ ID NO: 54 (peptide)
# peptide: Ac-LEGREKVRAQI[Aib][Aib]EGQSTWS[Aib]RKK-NH2
# SMILES: CC[C@H](C)[C@H](NC(=O)[C@H](CCC(N)=O)NC(=O)[C@H](C)NC(=O)[C@H](CCCNC(=N)N)NC(=O)[C@@H](NC(=O)[C@H](CCCCN)NC(=O)[C@H](CCC(=O)O)NC(=O)[C@H](CCCNC(=N)N)NC(=O)CNC(=O)[C@H](CCC(=O)O)NC(=O)[C@H](CC(C)C)NC(C)=O)C(C)C)C(=O)NC(C)(C)C(=O)NC(C)(C)C(=O)N[C@@H](CCC(=O)O)C(=O)NCC(=O)N[C@@H](CCC(N)=O)C(=O)N[C@@H](CO)C(=O)N[C@H](C(=O)N[C@@H](Cc1c[nH]c2ccccc12)C(=O)N[C@@H](CO)C(=O)NC(C)(C)C(=O)N[C@@H](CCCNC(=N)N)C(=O)N[C@@H](CCCCN)C(=O)N[C@@H](CCCCN)C(N)=O)[C@@H](C)O
# B8: SEQ ID NO: 55 (peptide)
# peptide: Ac-LEGREKVRAQI[Aib][Aib]EG[Nle]SRWS[Aib]RRR-NH2
# SMILES: CCCC[C@H](NC(=O)CNC(=O)[C@H](CCC(=O)O)NC(=O)C(C)(C)NC(=O)C(C)(C)NC(=O)[C@@H](NC(=O)[C@H](CCC(N)=O)NC(=O)[C@H](C)NC(=O)[C@H](CCCNC(=N)N)NC(=O)[C@@H](NC(=O)[C@H](CCCCN)NC(=O)[C@H](CCC(=O)O)NC(=O)[C@H](CCCNC(=N)N)NC(=O)CNC(=O)[C@H](CCC(=O)O)NC(=O)[C@H](CC(C)C)NC(C)=O)C(C)C)[C@@H](C)CC)C(=O)N[C@@H](CO)C(=O)N[C@@H](CCCNC(=N)N)C(=O)N[C@@H](Cc1c[nH]c2ccccc12)C(=O)N[C@@H](CO)C(=O)NC(C)(C)C(=O)N[C@@H](CCCNC(=N)N)C(=O)N[C@@H](CCCNC(=N)N)C(=O)N[C@@H](CCCNC(=N)N)C(N)=O
# B9: SEQ ID NO: 6 (peptide)
# peptide: H-LEGREKVRAQI[Aib]IEGMSKWSKRKK-NH2
# SMILES: CC[C@H](C)[C@H](NC(=O)[C@H](CCC(N)=O)NC(=O)[C@H](C)NC(=O)[C@H](CCCNC(=N)N)NC(=O)[C@@H](NC(=O)[C@H](CCCCN)NC(=O)[C@H](CCC(=O)O)NC(=O)[C@H](CCCNC(=N)N)NC(=O)CNC(=O)[C@H](CCC(=O)O)NC(=O)[C@@H](N)CC(C)C)C(C)C)C(=O)NC(C)(C)C(=O)N[C@H](C(=O)N[C@@H](CCC(=O)O)C(=O)NCC(=O)N[C@@H](CCSC)C(=O)N[C@@H](CO)C(=O)N[C@@H](CCCCN)C(=O)N[C@@H](Cc1c[nH]c2ccccc12)C(=O)N[C@@H](CO)C(=O)N[C@@H](CCCCN)C(=O)N[C@@H](CCCNC(=N)N)C(=O)N[C@@H](CCCCN)C(=O)N[C@@H](CCCCN)C(N)=O)[C@@H](C)CC
# Target: T1, RXFP1 receptor (UniProt Q9HBX9 1-757, limits assumed)
# T1 sequence (looked up): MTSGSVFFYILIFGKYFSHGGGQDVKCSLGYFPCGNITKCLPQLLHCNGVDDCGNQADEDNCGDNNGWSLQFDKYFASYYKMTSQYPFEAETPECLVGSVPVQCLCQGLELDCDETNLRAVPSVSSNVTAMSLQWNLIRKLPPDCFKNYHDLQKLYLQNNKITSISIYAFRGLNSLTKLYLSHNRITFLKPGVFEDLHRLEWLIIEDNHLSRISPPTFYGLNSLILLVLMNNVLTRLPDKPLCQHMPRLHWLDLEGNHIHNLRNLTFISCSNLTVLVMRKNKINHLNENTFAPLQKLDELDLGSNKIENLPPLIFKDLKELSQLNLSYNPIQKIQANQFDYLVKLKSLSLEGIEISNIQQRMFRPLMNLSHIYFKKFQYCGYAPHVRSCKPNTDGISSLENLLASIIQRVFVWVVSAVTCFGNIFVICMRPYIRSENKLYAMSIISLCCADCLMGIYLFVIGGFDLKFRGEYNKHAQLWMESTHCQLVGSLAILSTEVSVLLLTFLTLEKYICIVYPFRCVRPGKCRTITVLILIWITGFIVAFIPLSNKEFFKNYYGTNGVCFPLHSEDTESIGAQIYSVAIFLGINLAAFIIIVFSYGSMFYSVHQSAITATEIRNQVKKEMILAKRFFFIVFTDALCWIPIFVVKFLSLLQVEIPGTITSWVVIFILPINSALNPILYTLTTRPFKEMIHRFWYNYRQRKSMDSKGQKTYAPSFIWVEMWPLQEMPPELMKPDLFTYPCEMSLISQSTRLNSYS
# Experiment: cell-based or functional assay
Binder,cAMP assay in OVCAR 5 cells EC50,cAMP assay in OVCAR 5 cells Emax
B1,42.9 nM,91%
B2,7.4 nM,98%
B3,4.42 nM,90%
B4,18.6 nM,98%
B5,9.15 nM,94%
B6,76.2 nM,75%
B7,22 nM,–
B8,4.9 nM,88%
B9,46.3 nM,97%
